This is an account of results in patent US20260184793A1 (TJ BIOPHARMA SHANGHAI, published 2026).

A word on the EC50 (read off the curve): it is the concentration giving half of the maximal effect. Read a low EC50 (read off the curve) as a more potent agent.

Read-outs that look alike come from different tables or passages of the source.

Assay [1] has as its target T1, human PD-L1 expressed on cells (Raji cells overexpressing human PD-L1; CHO cells) (human, UniProt Q9NZQ7 19-290). Kind of assay: cell-based or functional assay.
The target of assay [2] is T2, human His-PD-L1 (human, UniProt Q9NZQ7 19-238, limits assumed).
T2 construct: also called human PD-L1
Kind of assay: ELISA: plate coated with human His-PD-L1, antibody titrated, goat anti-human IgG Fc HRP, OD450. As for the experimental part:
Briefly, 100 μl anti-PD-L1 antibody at different concentrations was incubated in each well of 96 well plate pre-coated with human His-PD-L1, and then goat anti-human IgG Fc HRP was added and analyzed by coloring reaction of HRP with its substrate.
In general terms: In an ELISA, binding on a coated surface is turned into a signal by an enzyme label.

Assay [3] addresses T1, human PD-L1 expressed on cells (Raji …). Kind of assay: flow cytometry, PD-L1 expressed on CHO or Raji cells.
For assay [4], the target named is T2, human His-PD-L1. Kind of assay: ELISA blocking assay: antibody titrated together with Biotin-PD-1 on coated human His-PD-L1, Streptavidin-HRP, OD450.
Assay [5] has as its target T1, human PD-L1 expressed on cells (Raji …). Briefly: flow cytometry on Raji-PDL1 cells (cell binding assay), GMFI. As for the experimental part:
Binding capability of the anti-PD-L1 antibody of the present application was further evaluated by using Raji cells overexpressing human PD-L1. Briefly, 50 μl Raji cells overexpressing human PD-L1 were seeded into 96 well plate at a concentration of 2*10⁵ cells/well. […] Then the cells were washed twice by FACS buffer and supplemented with 100 μl PE-anti-hu IgG, followed by incubation on ice for 1 hour. After incubation, the cells in each well were collected and resuspended with 65 μl FACS buffer for analysis by flow cytometry.

For assay [6], the target named is T2, human His-PD-L1. Briefly: ELISA blocking assay: antibody titrated together with Biotin-PD-1 on coated human His-PD-L1, Streptavidin-HRP, OD450. This is another data set of the same source.
Assay [7] has as its target T1, human PD-L1 expressed on cells (Raji …). Kind of assay: flow cytometry on CHOK1-PDL1 cells (cell binding assay), GMFI. Background: A flow cytometer gives signals particle by particle.
In assay [8] the target is T2, human His-PD-L1. Kind of assay: ELISA blocking assay: antibody titrated together with Biotin-PD-1 on coated human His-PD-L1, Streptavidin-HRP, OD450. The source holds these as a separate data set.
Assay [9] has as its target T2, human His-PD-L1. The assay is described as above. This is another data set of the same source.
The target of assay [10] is T1, human PD-L1 expressed on cells (Raji …). Kind of assay: cell-based or functional assay. The source holds these as a separate data set.
The target is the same in assay [11]. Briefly: flow cytometry on CHOK1-PDL1 cells (cell binding assay), GMFI. The source holds these as a separate data set.

T1 sequence (Q9NZQ7 19-290): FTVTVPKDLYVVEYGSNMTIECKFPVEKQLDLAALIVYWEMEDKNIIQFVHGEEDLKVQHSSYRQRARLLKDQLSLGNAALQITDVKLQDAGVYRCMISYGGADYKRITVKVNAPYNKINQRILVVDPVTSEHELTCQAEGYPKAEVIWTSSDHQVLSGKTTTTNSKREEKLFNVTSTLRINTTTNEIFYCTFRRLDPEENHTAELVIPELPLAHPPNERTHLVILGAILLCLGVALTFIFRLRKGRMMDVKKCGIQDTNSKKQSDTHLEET
T2 sequence (Q9NZQ7 19-238 limits assumed): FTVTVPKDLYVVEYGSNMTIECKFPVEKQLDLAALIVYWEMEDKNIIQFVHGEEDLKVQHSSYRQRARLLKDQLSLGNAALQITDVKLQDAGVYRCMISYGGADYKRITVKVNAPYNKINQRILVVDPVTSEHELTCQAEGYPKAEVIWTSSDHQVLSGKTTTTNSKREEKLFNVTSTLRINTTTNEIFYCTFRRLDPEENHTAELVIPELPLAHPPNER

B1: 93-VH-6 (VHH)
VHH: EVQLVESGGGLVQPGGSLRLSCAASGFTFTFRHYVMGWFRQAPGKEREFVAAISWSGSGSYYADSVKGRFTISRDNSKNTVYLQMNSLRAEDTAVYYCAADMTTRMSQASREYDYWGQGTLVTVSS
Consider B1, for which the “EC50 (read off the curve), NFAT-luciferase signal (RLU), CHO-PDL-1 aAPC and Jurkat-PD-1-NFAT” value (“EC50 … CHO-PDL-1 aAPC and Jurkat-PD-1-NFAT” below) in [1] is around 0.7 nM.

B2: R21448502 (VHH)
VHH: EVQLVESGGGLVQPGGSLRLSCAASGFTFTFYHYVMGWFRQAPGKEREFVAAISWSGSGSYYADSVKGRFTISRDNSKNTVYLQMNSLRAEDTAVYYCAADMTTRMSQASREYDYWGQGTLVTVSS
notes: ELISA detection with anti-human IgG Fc implies a human Fc part that is not described
For B2, the binding result in [2] and in assay [3] was “binds” each time.

B3: R21448516 (VHH)
VHH: EVQLVESGGGLVQPGGSLRLSCAASGFTFTFYHYVMGWFRQAPGKEREFVADISWSGSGSYYADSVKGRFTISRDNSKNTVYLQMNSLRAEDTAVYYCAADMTTEMSQDSDEYDYWGQGTLVTVSS
notes: as for B2
In the case of B3, the “IC50 (read off the curve)” value in assay [4] was around 0.7 nM. Also, in assay [5], the “EC50 (read off the curve)” value was around 0.4 nM.

B4: R21448519 (VHH)
VHH: EVQLVESGGGLVQPGGSLRLSCAASGFTFTFRHYVMGWFRQAPGKEREFVAAISWSGSGSYYADSVKGRFTISRDNSKNTVYLQMNSLRAEDTAVYYCAADMTTRMSQDSDEYDYWGQGTLVTVSS
notes: as for B2
For B4, the “IC50 (read off the curve)” value in [6] was around 0.8 nM.

B5: R21448504 (VHH)
VHH: EVQLVESGGGLVQPGGSLRLSCAASGFTFTFRHYVMGWFRQAPGKEREFVAAISWSGSGSYYADSVKGRFTISRDNSKNTVYLQMNSLRAEDTAVYYCAADMTTEMSQASREYDYWGQGTLVTVSS
notes: as for B2
For B5, the binding result in [2] and in assay [3] was “binds” in each case.

B6: R21448509 (VHH)
VHH: EVQLVESGGGLVQPGGSLRLSCAASGFTFTFYHYVMGWFRQAPGKEREFVAAISWSGSGSYYADSVKGRFTISRDNSKNTVYLQMNSLRAEDTAVYYCAADMTTRMSQASDEYDYWGQGTLVTVSS
notes: as for B2
Turning to B6, the binding result in assay [7] and in assay [8] was “binds” throughout.

B7: R21448505 (VHH)
VHH: EVQLVESGGGLVQPGGSLRLSCAASGFTFTFRHYVMGWFRQAPGKEREFVAAISWSGSGSYYADSVKGRFTISRDNSKNTVYLQMNSLRAEDTAVYYCAADMTTRMSQDSREYDYWGQGTLVTVSS
notes: as for B2
As to B7, the “EC50 (read off the curve)” value in assay [7] is around 4 nM.

B8: R21448514 (VHH)
VHH: EVQLVESGGGLVQPGGSLRLSCAASGFTFTFYHYVMGWFRQAPGKEREFVADISWSGSGSYYADSVKGRFTISRDNSKNTVYLQMNSLRAEDTAVYYCAADMTTRMSQDSREYDYWGQGTLVTVSS
notes: as for B2
Regarding B8, the “IC50 (read off the curve)” value in assay [6] was around 0.6 nM.

B9: R21448508 (VHH)
VHH: EVQLVESGGGLVQPGGSLRLSCAASGFTFTFYHYVMGWFRQAPGKEREFVAAISWSGSGSYYADSVKGRFTISRDNSKNTVYLQMNSLRAEDTAVYYCAADMTTRMSQDSREYDYWGQGTLVTVSS
notes: as for B2
B9: the binding result in assay [2] and in assay [3] was “binds” each time.

B10: R21448506 (VHH)
VHH: EVQLVESGGGLVQPGGSLRLSCAASGFTFTFRHYVMGWFRQAPGKEREFVAAISWSGSGSYYADSVKGRFTISRDNSKNTVYLQMNSLRAEDTAVYYCAADMTTRMSQASDEYDYWGQGTLVTVSS
notes: as for B2
B10: the binding result in assay [7] and in [2] was “binds” in each case.

B11: R21448515 (VHH)
VHH: EVQLVESGGGLVQPGGSLRLSCAASGFTFTFYHYVMGWFRQAPGKEREFVADISWSGSGSYYADSVKGRFTISRDNSKNTVYLQMNSLRAEDTAVYYCAADMTTRMSQASDEYDYWGQGTLVTVSS
notes: as for B2
For B11, the “IC50 (read off the curve)” value in assay [6] is around 0.8 nM.

B12: R21448518 (VHH)
VHH: EVQLVESGGGLVQPGGSLRLSCAASGFTFTFRHYVMGWFRQAPGKEREFVAAISWSGSGSYYADSVKGRFTISRDNSKNTVYLQMNSLRAEDTAVYYCAADMTTEMSQASDEYDYWGQGTLVTVSS
notes: as for B2
Turning to B12, the binding result in [2] and in assay [3] was “binds” each time.

B13: R21448507 (VHH)
VHH: EVQLVESGGGLVQPGGSLRLSCAASGFTFTFYHYVMGWFRQAPGKEREFVAAISWSGSGSYYADSVKGRFTISRDNSKNTVYLQMNSLRAEDTAVYYCAADMTTEMSQASREYDYWGQGTLVTVSS
notes: as for B2
Turning to B13, the binding result in assay [2] and in assay [3] was “binds” throughout.

B14: R21448513 (VHH)
VHH: EVQLVESGGGLVQPGGSLRLSCAASGFTFTFYHYVMGWFRQAPGKEREFVADISWSGSGSYYADSVKGRFTISRDNSKNTVYLQMNSLRAEDTAVYYCAADMTTEMSQASREYDYWGQGTLVTVSS
notes: as for B2
Regarding B14, the binding result in assay [2] and in assay [3] was “binds” in each case.

B15: R21448517 (VHH)
VHH: EVQLVESGGGLVQPGGSLRLSCAASGFTFTFRHYVMGWFRQAPGKEREFVAAISWSGSGSYYADSVKGRFTISRDNSKNTVYLQMNSLRAEDTAVYYCAADMTTEMSQDSREYDYWGQGTLVTVSS
notes: as for B2
Take B15: the binding result in [2] and in [3] was “binds” each time.

B16: 112-VH47 (VHH)
VHH: EVQLVESGGGLVQPGGSLRLSCAASGFTFSSGTQFSDSKIDWYRQAPGKGLVWVAGIFSTGSTIYEDSVKGRFTISRDNAKNTGYLQMNSLRAEDTAVYYCRVIGRGILAWGQGTLVTVSS
In the case of B16, in assay [1], the “EC50 … CHO-PDL-1 aAPC and Jurkat-PD-1-NFAT” value is around 0.6 nM.

B17: R21560103 (VHH)
VHH: EVQLVESGGGLVQPGGSLRLSCAASGFTFSSGTQFSDSKIDWYRQAPGKGLVWVAGIFSTGSTIYEDSVKGRFTISRDNAKNTGYLQMNSLRAEDTAVYYCRVIGIGILAWGQGTLVTVSS
notes: as for B2
With B17, the binding result in [2] and in [3] was “binds” each time.

B18: R21560106 (VHH)
VHH: EVQLVESGGGLVQPGGSLRLSCAASGFTFSSGTQFSDSKADWYRQAPGKGLVWVAGIFSTGSTIYEDSVKGRFTISRDNAKNTGYLQMNSLRAEDTAVYYCRVIGRGTLAWGQGTLVTVSS
notes: as for B2
Turning to B18, the binding result in assay [2] and in [3] was “binds” in each case.

B19: R21560102 (VHH)
VHH: EVQLVESGGGLVQPGGSLRLSCAASGFTFSSGTQFSDSKIDWYRQAPGKGLVWVAGIFQTGSTIYEDSVKGRFTISRDNAKNTGYLQMNSLRAEDTAVYYCRVIGRGILAWGQGTLVTVSS
notes: as for B2
For B19, in assay [9], the “IC50 (read off the curve)” value was around 0.8 nM. Further, the “EC50 … CHO-PDL-1 aAPC and Jurkat-PD-1-NFAT” value in assay [10] was around 0.5 nM. Also, the “EC50 (read off the curve)” value in assay [11] is around 3 nM.
